Results from patent US20220347267A1, “METHODS TO IMPROVE PATIENT RESPONSE TO IMMUNE CHECKPOINT INHIBITORS AND FUNCTIONAL TESTS TO PREDICT RESPONSE” (Biomarker Strategies, LLC, priority 2019, published 2022).

Columns and labels:
Experiment in all cases: PD-L1 western blot after modulators (EM and MTAs)
Type in all cases: cell-based, human
[1] = system: Calu6 cells; conditions: NSCLC Calu6, 30 minutes, 3 hours, 24 hours
Excerpt: (§1) Cell lines were acquired from ATCC, Sigma, or DSMZ. Human non-small cell lung carcinoma (NSCLC) cell lines H292 (ATCC no. CRL-1848.), H1299 (ATCC no. CRL-5803), H520 (ATCC no. CRL-5811), CALU6 (ATCC no. HTB-56), H1975 (ATCC no. CRL-5908), H460 (ATCC no. HTB-177), H2126 (ATCC no. CCL-256), H1650 (ATCC no. CRL-5883), and H2087 (ATCC no. CRL-5922) were used for this experiment along with head and neck squamous cell carcinoma (HNSCC) cell lines BHY (DSMZ ACC 404), CAL27 (ATCC no. CRL-2095), KYSE410 (Sigma), and A253 (ATCC no. HTB-41), melanoma cell lines A375 (ATCC no. CRL-1619), COL0853 (Sigma), and MM127 (Sigma) pancreatic cancer cell lines BXPC3 (ATCC no. CRL-1687), colorectal cancer cell lines […], HCT116 (ATCC no. CCL-247EMT), and breast cancer cell lines BT549 (ATCC no. HTB-122), BT20 (ATCC no. HTB-19), and T47D (ATCC no. HTB-133). Cells were maintained in manufacturer-recommended conditions at 37° C. inside humidified 5% CO2 incubators. Sub-cultivation and harvesting for all cell lines were performed using Accutase (GIBCO Life Technologies; cat. no. A1110501) at 37° C. for 10 minutes. Cell viability was measured using trypan blue exclusion staining in conjunction with the Countess II Automated Cell Counter (Thermo Fischer Scientific; cat. no. AMQAX1000). Measurements were made in duplicate and the average number of viable cells was recorded prior to experiments.
(§2) Enhancer Molecule and Therapies: IFNγ, (10 ng/ml; Sigma Aldrich, cat.no 11040596001), TNFα (10 ng/ml; BD Biosciences cat. no. 554618), Osimertinib (100 ng/ml; Selleckchem cat.no. S7297), Everolimus (100 ng/ml; Selleckchem cat.no S1120), GSK458 (10 ng/ml; Selleckchem cat. no. S2658), TNFb (50 ng/ml; Sigma Aldrich cat. no.), GSK795 (1,000 ng/ml; Selleckchem cat. no. S7492), IL-12 (50 ng/ml; Sigma Aldrich SRP3073), GM-CSF (50 ng/ml; Sigma Aldrich cat. no. G5035), IL-1a (1 ng/ml; Sigma Aldrich cat. no. 12778-), IL-6 (50 ng/ml; Sigma Aldrich), IL-17 (100 ng/ml; Sigma Aldrich cat. no. SRP3080), TGFb (1 ng/ml; Sigma Aldrich cat. no. T7039), and IL-10 (50 ng/ml; Sigma Aldrich cat. no. SRP3071) were administered to cell lines for various times including 30 minutes, 3 hour, and 24 hour time intervals prior to cell lysis and protein extraction.
(§3) To determine the effects of the aforementioned molecules on the modulation of PD-L1, we selected various NSCLC, HNSCC, breast cancer, melanoma, colorectal cancer, and pancreatic cancer cell lines as examples. Other diseases or cell lines could be used readily as could more complex samples such as cells isolated from xenografts and clinical samples. Cells were plated, for three different time points (30 minutes, 3 hours, and 24 hours), inside 6-well petri dishes with 2 mL of appropriate medium. Plates were incubated for 24 hours in 5% CO2 incubators at 37° C. After 24 hours, each 6-well plate was washed with PBS (Gibco Life Technologies, cat. no. 10010023) followed by fresh media being added along with each cell line's vehicle control or appropriate modulator for each specific time point, and were placed in CO2 incubators until their modulation time point was reached. Other conditions can be readily used, such as processing on automated systems such as SnapPath. At the end of each time point, while keeping plates on ice, cell lysis was conducted by aspirating culture medium from each plate, washing of each plate three times with 5 ml of cold PBS (Gibco Life Technologies, cat. no. 10010023) and culminated with the addition of cold 1× lysis buffer containing (Cell Signaling, cat. no. 9803 S) protease inhibitor cocktail (Cell Signaling, cat. no. 5871S), phosphatase inhibitor cocktail (Cell Signaling, cat. no. 5870S), and PMSF (Fisher Scientific, cat. no. ICN19538101). Plates were then placed on ice for ten minutes, swirling each plate intermittently. Aliquots of protein lysates were prepared and then stored at −80° C. until protein quantification and Western blot analysis was to be conducted. […]

[2] = system: BHY cells; conditions: Head and neck BHY, 30 minutes, 3 hours, 24 hours
Excerpt: as §1, §2, §3

[3] = system: H1975 cells; conditions: NSCLC H1975, 30 minutes, 3 hours, 24 hours
Excerpt: as §1, §2, §3

[4] = system: A375 cells; conditions: Melanoma A375, 30 minutes, 3 hours, 24 hours
Excerpt: as §1, §2, §3

[5] = system: BxPC3 cells; conditions: Pancreatic BxPC3, 30 minutes, 3 hours, 24 hours
Excerpt: as §1, §2, §3

[6] = system: H520 cells; conditions: NSCLC H520, 30 minutes, 3 hours, 24 hours
Excerpt: as §1, §2, §3

[7] = system: H1299 cells; conditions: NSCLC H1299, 30 minutes, 3 hours, 24 hours
Excerpt: as §1, §2, §3

[8] = system: CAL27 cells; conditions: Head and neck CAL27, 30 minutes, 3 hours, 24 hours
Excerpt: as §1, §2, §3

[9] = system: H2087 cells; conditions: NSCLC H2087, 30 minutes, 3 hours, 24 hours
Excerpt: as §1, §2, §3

[10] = system: BT20 cells; conditions: Breast BT20, 30 minutes, 3 hours, 24 hours
Excerpt: as §1, §2, §3

[11] = system: KYSE410 cells; conditions: Head and neck KYSE410, 30 minutes, 3 hours, 24 hours
Excerpt: as §1, §2, §3

[12] = system: A253 cells; conditions: Head and neck A253, 30 minutes, 3 hours, 24 hours
Excerpt: as §1, §2, §3

Measured: PD-L1 Response

B1: IFNγ: human IFNγ, modulator (10 ng/ml; Sigma Aldrich) (protein, UniProt P01579 24-161, looked up)
Interferon gamma: QDPYVKEAENLKKYFNAGHSDVADNGTLFLGILKNWKEESDRKIMQSQIVSFYFKLFKNFKDDQSIQKSVETIKEDMNVKFFNSNKKKRDDFEKLTNYSVTDLNVQRKAIHELIQVMAELSPAAKTGKRKRSQMLFRG
Up: all assays above
